Numbering of substitutions follows the chain as printed. Names may count otherwise. Like-named read-outs stand apart in the source and are kept apart here. One block for each binder: values may come before it.
Experiments:
[1] = molecular target: T1, mature myostatin (recombinant, dimeric) (mouse polyprotein used for in-house …, UniProt O08689 268-376); experiment: BIAcore, low density myostatin surface, methods as in 4.3
T1 construct: also called GDF-8; recombinant myostatin
T1 sequence: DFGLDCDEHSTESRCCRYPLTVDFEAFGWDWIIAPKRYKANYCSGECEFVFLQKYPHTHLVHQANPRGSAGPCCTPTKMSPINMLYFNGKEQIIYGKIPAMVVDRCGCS

[2] = molecular target: T1, mature myostatin (recombinant, dimeric); experiment: BIAcore, medium density myostatin surface, antibody analyte, 1:1 model (poor fits)
Description: (§1) Purified H0L0, H1L2 and H2L2 bound recombinant myostatin by BIAcore™ Recombinant myostatin was immobilised at three different densities (low, medium and high, to give R-max values of approximately 35, 120 and 350 RU's respectively) onto a BIAcore™ chip. Antibodies were passed over at 256, 64, 16, 4 and 1 nM. 0 nM antibody was used for double referencing and data was fitted to the 1:1 model.

[3] = molecular target: T1, mature myostatin (recombinant, dimeric); experiment: cell-based or functional assay
[4] = molecular target: T1, mature myostatin (recombinant, dimeric); experiment: BIAcore, high density myostatin surface, antibody analyte, 1:1 model (poor fits)
Description: as §1

[5] = molecular target: T1, mature myostatin (recombinant, dimeric); experiment: myostatin binding ELISA with purified antibody, 10 ng/well recombinant myostatin coated, anti-human kappa HRP, A490 (Examples 4.1, 4.2)
Description: (§2) The myostatin binding ELISA was carried out approximately according to this protocol. A 96-well ELISA plate was coated at 4° C. overnight with 10 ng/well recombinant myostatin. This plate was then washed 3-times in wash buffer (PBS, 0.1% Tween-20). The wells were blocked for 1 hour at room temperature with block solution (PBS, 0.1% Tween-20+1% bovine serum albumin [BSA]), before washing 3-times in wash buffer. Antibodies were then titrated out to a suitable concentration range (approximately 100 to 0.001 μg/ml), added to the plate and incubated for 1 hour at room temperature. The plate was then washed 3-times in wash buffer. An anti-mouse IgG HRP-conjugated antibody (P0260 by Dako, this reagent was used according to the manufacturer's instructions) was used to detect binding of mouse antibodies, such as 10B3. An anti-human kappa light chain HRP-conjugated antibody (A7164 by Sigma Aldridge, this reagent was used according to the manufacturer's instructions) was used to detect binding of humanized or chimeric antibodies, such as 10B3 chimera or H0L0. The plate was then washed 3-times in wash buffer and developed with an OPD substrate (from Sigma, used according to the manufacturer's instructions) and read at 490 nm on a plate reader.

[6] = molecular target: T1, mature myostatin (recombinant, dimeric); experiment: myostatin binding ELISA with purified antibody, 10 ng/well recombinant myostatin coated, anti-human kappa HRP, A490 (Examples 4.1, 4.2); the text says the CHOK1 material was hard to quantify
Description: as §2

[7] = molecular target: T1, mature myostatin (recombinant, dimeric); experiment: BIAcore, low density myostatin surface, antibody analyte, 1:1 model
Description: as §1

[8] = molecular target: T1, mature myostatin (recombinant, dimeric); experiment: cell-based or functional assay; remark: listed apart in the source
[9] = molecular target: T1, mature myostatin (recombinant, dimeric); experiment: ActRIIb receptor binding assay (Example 2.5), mean IC50
Description: Recombinant soluble ActRIIb (R&D Systems 339-RBB) was coated in wells of an ELISA plate at 1 μg/ml in carbonate buffer overnight at 4° C. Plates were blocked (see Block solution above at 2.3) and washed following standard ELISA protocols. In parallel, 2 nM biotinylated myostatin (in-house, as described in 1.1, biotinylated material) was pre-incubated with an antibody dilution series consisting of 10B3, 10B3C, and a negative control (IgG1 isotype control) for 2 hours at 37° C. The biotinylated myostatin:antibody reactions were then added to the ActRIIb coated plate for 1 hour at 37° C. Standard wash procedures were followed prior to addition of 1:1000 diluted streptavidin-HRP conjugate (Dako P0397) and a further 37° C. incubation for 1 hour. Plates were again washed and assayed at absorbance 490 nm following OPD substrate (Sigma) and acid stop solution treatment Inhibition curves and IC50 values for the inhibition of myostatin activity are shown in FIG. 5 and Table 8 respectively.
H2L2 C91S_G55S F100G_Y, the developability enhanced molecule with the highest apparent potency in the A204 assay was Fc-disabled (by making the following substitutions, using EU numbering system: Leu 235 Ala; and Gly 237 Ala) as exemplified in SEQ ID NO: 99.

[10] = molecular target: T1, mature myostatin (recombinant, dimeric); experiment: cell-based or functional assay; remark: listed apart in the source
[11] = molecular target: T1, mature myostatin (recombinant, dimeric); experiment: cell-based or functional assay; remark: listed apart in the source
[12] = molecular target: T1, mature myostatin (recombinant, dimeric); experiment: myostatin capture ELISA: plate coated with polyclonal anti-myostatin AF788, myostatin 1 µg/ml captured, purified antibody titrated, anti-human kappa HRP, A490 (Example 6.7)
Description: A 96-well ELISA plate was coated at 4° C. overnight with 2.5 μg/ml polyclonal Antibody to Myostatin (R&D Systems AF788). This plate was then washed 3-times in wash buffer (PBS, 0.1% Tween-20) and blocked for 1 hour at room temperature with block solution (PBS, 0.1% Tween-20+1% bovine serum albumin [BSA]). Then, myostatin was added at 1 μg/ml in block buffer during 1 hour followed by 3-times in wash buffer. Antibodies were then titrated out to a suitable concentration range (approximately 10 to 0.01 μg/ml), added to the plate and incubated for 1 hour at room temperature. The plate was then washed 3-times in wash buffer. An anti-human kappa light chain HRP-conjugated antibody (Sigma A7164, used according to the manufacturer's instructions) was used to detect binding of humanized or chimeric antibodies, such as 10B3 chimera (HcLc) or H0L0. The plate was then washed 3-times in wash buffer and developed with an OPD substrate (according to the manufacturer's instructions) and read at 490 nm on a plate reader.
The experiment is illustrated in FIG. 21 where H2L2-C91S, H0L0, HcLc (10B3 chimera) and a negative control monoclonal antibody were used as control antibodies. All eleven CDRH3 variant antibodies bound to recombinant myostatin in this ELISA. […]

[13] = molecular target: T1, mature myostatin (recombinant, dimeric); experiment: myostatin binding ELISA after 48 h at 37 C in 1% ammonium bicarbonate pH 9.0 (Examples 5.2, 4.2), A490
[14] = molecular target: T1, mature myostatin (recombinant, dimeric); experiment: myostatin binding ELISA after 48 h at 37 C in PBS (Examples 5.2, 4.2), A490
[15] = molecular target: T1, mature myostatin (recombinant, dimeric); experiment: myostatin binding ELISA, 10 ng/well recombinant myostatin coated, CHOK1 supernatants, anti-human kappa HRP, A490 (Examples 5.1, 4.2)
[16] = molecular target: T1, mature myostatin (recombinant, dimeric); experiment: myostatin binding ELISA, CHOK1 supernatants
Description: as §2, with “An anti-human kappa light chain HRP-conjugated antibody (A7164 by Sigma Aldridge, this reagent was used according to the manufacturer's instructions) was used to detect binding of humanized or chimeric antibodies, such as 10B3 chimera or H0L0.” left out
The plasmids for each antibody were transfected into CHOK1 cells in duplicate and in two separate experiments. Antibodies produced in the CHOK1 cell supernatant were analysed for activity in the myostatin binding ELISA. […]

binding result [12]: binds
B4: H2L2-C91S_F100G_N (antibody, human IgG1, kappa, V domains shown)
VH: QVQLVQSGAEVKKPGASVKVSCKASGYSFTGYFMHWVRQAPGQGLEWMGNIYPYNGVSNYNQRFKARVTMTTDTSTSTAYMELRSLRSDDTAVYYCARRYYYGTGPADWYNDVWGQGTLVTVSS
VL: DIQMTQSPSSLSASVGDRVTITCKASQDINSYLSWFQQKPGKAPKSLIYRANRLVDGVPSKFSGSGSGTDYTLTISSLQPEDFATYYCLQSDEFPLTFGQGTKLEIKR

binding result [15]: no binding
B7: H2L2 N54D & C91S (H2L2-N54D-C91S) (antibody, human IgG1, kappa, V domains shown)
VH: B4 VH with N55D, N111F
VL: B4 VL

binding result [12]: binds
B8: H2L2-C91S_W100E_F (antibody, human IgG1, kappa, V domains shown)
VH: B4 VH with W109F, N111F
VL: B4 VL

binding result [15]: no binding (tested: about 33 nM)
B9: H2L2 N54D (H2L2-N54D) (antibody, human IgG1, kappa, V domains shown)
VH: B4 VH with N55D, N111F
VL: B4 VL with S91C

binding result [16]: no binding
B11: 10B3 chimera N54D & C91S (HCLC-N54D-C91S) (antibody, human IgG1, kappa, V domains shown)
VH: EVQLQQSGPELVKPGASVKISCKASGYSFTGYFMHWVKQSHGNILDWIGNIYPYDGVSNYNQRFKAKATLTVDKSSSTAYMELRSLTSEDSAVYYCARRYYYGTGPADWYFDVWGTGTLVTVSS
VL: DIKMTQSPSSMYASLRERVTITCKASQDINSYLSWFQQKPGKSPKTLIYRANRLVDGVPSRFSGSGSGQDYSLTISSLEYEDMGIYYCLQSDEFPLTFGAGTKLELKR

Continued, binder first:

B1: H0L0 (antibody, human IgG1, kappa)
heavy: not shown
light: DIQMTQSPSSLSASVGDRVTITCKASQDINSYLSWFQQKPGKAPKSLIYRANRLVDGVPSKFSGSGSGTDFTLTISSLQPEDFATYYCLQCDEFPLTFGQGTKLEIKRTVAAPSVFIFPPSDEQLKSGTASVVCLLNNFYPREAKVQWKVDNALQSGNSQESVTEQDSKDSTYSLSSTLTLSKADYEKHKVYACEVTHQGLSSPVTKSFNRGEC
notes: Humanised, human IgG1 wild type/kappa
Kd [1]: 22.7 nM
Kd [2]: 3.61 nM
koff [2]: 0.00093 s⁻¹
kon [2]: 258000 M⁻¹ s⁻¹
Mean IC50, A204 in vitro activity assay [3]: 10.1 nM
Kd [4]: 2.31 nM
koff [4]: 0.000338 s⁻¹
kon [4]: 146000 M⁻¹ s⁻¹
EC50 (read off the curve) [5]: ~0.1 µg/mL
EC50 (read off the curve) [6]: ~0.3 µg/mL
Kd [7]: 8.26 nM
koff [7]: 0.00662 s⁻¹
kon [7]: 801000 M⁻¹ s⁻¹
Mean IC50, A204 in vitro activity assay [8]: 10.2 nM

B2: H2L2 C91S_G55S F100G_Y (antibody)
chain 1: not shown
chain 2: B1 light with F71Y, C91S
IC50 [9]: 0.786 nM
Mean IC50, A204 in vitro activity assay [10]: 4.42 nM

B3: H2L2-C91S_F100G_Y Fc Disabled (antibody, human IgG1, kappa)
heavy: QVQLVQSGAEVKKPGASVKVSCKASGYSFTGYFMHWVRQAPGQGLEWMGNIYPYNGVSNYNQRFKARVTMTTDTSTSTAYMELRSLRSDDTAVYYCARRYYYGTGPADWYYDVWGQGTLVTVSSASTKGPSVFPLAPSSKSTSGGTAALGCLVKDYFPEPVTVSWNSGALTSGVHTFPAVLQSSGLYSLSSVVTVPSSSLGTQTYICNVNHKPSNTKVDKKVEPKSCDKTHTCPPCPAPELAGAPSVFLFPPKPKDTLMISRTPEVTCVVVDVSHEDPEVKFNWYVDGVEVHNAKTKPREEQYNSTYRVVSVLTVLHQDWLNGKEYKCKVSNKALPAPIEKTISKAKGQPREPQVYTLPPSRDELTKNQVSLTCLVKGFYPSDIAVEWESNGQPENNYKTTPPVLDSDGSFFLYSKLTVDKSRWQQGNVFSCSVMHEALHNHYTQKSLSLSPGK
light: B1 light with F71Y, C91S
Mean IC50, A204 in vitro activity assay [11]: 1.24 nM

B5: H2L2 (antibody, human IgG1, kappa, V domains shown)
VH: B4 VH with N111F
VL: B4 VL with S91C
notes: as for B1
Kd [1]: 12 nM
Kd [2]: 3 nM
koff [2]: 0.000737 s⁻¹
kon [2]: 246000 M⁻¹ s⁻¹
EC50 (read off the curve) [13]: ~0.6 nM
Mean IC50, A204 in vitro activity assay [3]: 10.1 nM
Kd [4]: 1.47 nM
koff [4]: 0.000216 s⁻¹
kon [4]: 147000 M⁻¹ s⁻¹
EC50 (read off the curve) [5]: ~0.09 µg/mL
EC50 (read off the curve) [6]: ~0.1 µg/mL
Kd [7]: 8.37 nM
koff [7]: 0.00268 s⁻¹
kon [7]: 321000 M⁻¹ s⁻¹
EC50 (read off the curve) [14]: ~0.7 nM
Mean IC50, A204 in vitro activity assay [8]: 8.6 nM

B6: H2L2 C91S_G55S F100G_Y-Fc disabled (antibody, human IgG1, kappa)
heavy: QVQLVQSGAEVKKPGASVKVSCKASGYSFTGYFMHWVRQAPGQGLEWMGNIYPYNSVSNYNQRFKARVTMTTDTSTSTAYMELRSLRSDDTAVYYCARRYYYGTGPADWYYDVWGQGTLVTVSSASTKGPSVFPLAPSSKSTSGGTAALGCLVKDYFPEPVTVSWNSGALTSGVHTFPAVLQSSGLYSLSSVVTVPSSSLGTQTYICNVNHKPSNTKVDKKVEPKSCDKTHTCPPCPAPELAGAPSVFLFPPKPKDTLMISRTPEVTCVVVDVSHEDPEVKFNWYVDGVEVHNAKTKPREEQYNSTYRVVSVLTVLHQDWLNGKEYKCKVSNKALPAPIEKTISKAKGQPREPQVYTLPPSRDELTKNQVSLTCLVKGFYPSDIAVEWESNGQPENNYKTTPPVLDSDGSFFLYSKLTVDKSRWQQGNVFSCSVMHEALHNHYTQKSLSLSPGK
light: B1 light with F71Y, C91S
IC50 [9]: 0.518 nM

B10: 10B3 chimera N54D (HCLC-N54D) (antibody, human IgG1, kappa, V domains shown)
VH: B11 VH
VL: B11 VL with S91C
binding result [16]: no binding

From patent US20110256132A1 (published 2011)
